Reference: paper PMC3404614 (Biochimica et Biophysica Acta, 2012)

System: Akt
Test: pS473 Akt phosphorylation by pancreatic growth factors
Assay type: cell-based
Conditions: rat pancreatic acini; data not shown

B1: hepatocyte growth factor (protein, UniProt P17945 33-495; P17945 496-728, looked up)
Hepatocyte growth factor …: QKKRRNTLHEFKKSAKTTLTKEDPLVKIKTKKVNSADECANRCIRNKGFPFTCKAFVFDKSRKRCYWYPFNSMSSGVKKGFGHEFDLYENKDYIRNCIIGKGGSYKGTVSITKSGIKCQPWNSMIPHEHSFLPSSYRGKDLQENYCRNPRGEEGGPWCFTSNPEVRYEVCDIPQCSEVECMTCNGESYRGPMDHTESGKTCQRWDQQTPHRHKFLPERYPDKGFDDNYCRNPDGKPRPWCYTLDPDTPWEYCAIKMCAHSAVNETDVPMETTECIKGQGEGYRGTTNTIWNGIPCQRWDSQYPHKHDITPENFKCKDLRENYCRNPDGAESPWCFTTDPNIRVGYCSQIPKCDVSSGQDCYRGNGKNYMGNLSKTRSGLTCSMWDKNMEDLHRHIFWEPDASKLTKNYCRNPDDDAHGPWCYTGNPLVPWDYCPISRCEGDTTPTIVNLDHPVISCAKTKQLR
Hepatocyte growth factor beta …: VVNGIPTQTTVGWMVSLKYRNKHICGGSLIKESWVLTARQCFPARNKDLKDYEAWLGIHDVHERGEEKRKQILNISQLVYGPEGSDLVLLKLARPAILDNFVSTIDLPSYGCTIPEKTTCSIYGWGYTGLINADGLLRVAHLYIMGNEKCSQHHQGKVTLNESELCAGAEKIGSGPCEGDYGGPLICEQHKMRMVLGVIVPGRGCAIPNRPGIFVRVAYYAKWIHKVILTYKL
**Q.** For B1, which “pS473 Akt phosphorylation” value is on record?
**A.** stimulated pS473 Akt phosphorylation
